Reference: patent US20210332123A1 (SUZHOU KANOVA BIOPHARMACEUTICAL, published 2021)

What was measured:
mouse IL-25 = biological target: T1, mouse IL-25 (mouse, UniProt Q8VHH8 17-169, limits assumed); test: ELISA, plate coated with mouse IL-25, OD450, Example 7; unit from the axis lg(nM) [panel Mouse IL-25]
T1 construct: In-house production
T1 sequence (looked up): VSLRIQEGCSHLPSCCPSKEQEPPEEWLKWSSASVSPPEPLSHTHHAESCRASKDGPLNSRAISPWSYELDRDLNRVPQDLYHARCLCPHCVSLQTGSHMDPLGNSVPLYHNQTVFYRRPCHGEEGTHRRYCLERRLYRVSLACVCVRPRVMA

human IL-25 [1] = biological target: T2, human IL-25 (human, UniProt Q9H293 33-177); test: ELISA, plate coated with human IL-25 (hIl25-HIS), OD450, Example 4; unit from the axis lg(nM) and paragraph 95
T2 construct: ELISA used bought R&D systems #1258-IL-025/CF; Treated as one molecule; also called IL-17E; human IL-17E
T2 sequence (looked up): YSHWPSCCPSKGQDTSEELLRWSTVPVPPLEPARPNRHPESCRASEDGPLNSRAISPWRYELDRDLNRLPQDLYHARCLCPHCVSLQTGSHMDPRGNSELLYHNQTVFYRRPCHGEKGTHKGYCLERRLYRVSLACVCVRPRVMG
Description: MaxiSorp 96-well plates (NUNC #449824, www.thermofisher.com) were coated with 2 μg/ml human IL-25 (R&D systems #1258-IL-025/CF) in 1×PBS (50 μl/well). Plates were incubated at 4° C. overnight. Coating solution was removed and plates were washed once with 200 μl/well PBST (1×PBS with 0.05% tween-20). Then 200 μl/well blocking buffer (1×PBS with 0.05% tween-20, 3% BSA) were added and incubated at room temperature for 1 hour. Blocking buffer was removed and plates were washed three times with 200 μl/well PBST (1×PBS with 0.05% tween-20). Anti-IL-25 antibodies (produced in Example 2) were diluted to 10, 3.33, 1.11, 0.37, 0.123, 0.041, 0.0137, 0.0046, 0.0015, 0.00031, 0.000102, 0.000034 μg/ml by 1×PBS and added to plates (50 μl/well). Plates were incubated at room temperature for 2 hours. Antibodies in the wells were removed and plates were washed three times with 200 μl/well PBST (1×PBS with 0.05% tween-20). Goat anti-human IgG (H&L)-HRP secondary antibody (Jackson Immuno Research #109-035-088, www.jacksonimmuno.com) was diluted 1:5000 in 1×PBS and added to each well (50 μl/well). Plates were incubated at room temperature for 1 hour. Secondary antibody was removed and plates were washed seven times with 200 μl/well PBST (1×PBS with 0.05% tween-20) each time. 50 μl/well TMB (eBioscience #85-00-4201-56, www.ebioscience.com) was added and plates were incubated at room temperature for several minutes. Then 50 μl/well 2N H₂SO₄ was added to stop the reaction. Optical density was measured at 450 nm in relation to human IL-25 binding.

human IL-25 [2] = biological target: T2, human IL-25; test: cell-based or functional assay

- EC50 (mouse IL-25): 0.215 nM
- EC50 (human IL-25 [1]): 0.208 nM
- IC50, CXCL1/GROalpha production of HT-29 cells stimulated by human IL-25 [B] (human IL-25 [2]): 11.4 nM
B1: VH1-2-VL2-1 (antibody, V domains shown)
VH: QVTLKESGPTLLKPTQTLTLTCTFSGFSLSTSGMGLGWIRQPPGKALEWLAHIWWDDVKHYKPALKSRLTITKDTSKNQVVLTITNVDPVDTATYYCARMGQLHYYGYDYAMDYWGQGTLVTVSS
VL: DIQLTQSPSFLSASVGDRVTITCSASSSVSYMYWYQQKPGKAPKPLIYRTSNLASGVPSRFSGSGSGTEYTLTISSMQPEDFATYYCQLYHSYPPTWTFGQGTKLEIK
notes: also called antibody formed by VH1-2 and VL2-1; copies: 2 + 2
